Measurements as given in PMC8827073, “Topological and enzymatic analysis of human Alg2 mannosyltransferase reveals its role in lipid-linked oligosaccharide biosynthetic pathway” (Communications Biology, 2022).

Substrate: CC(=O)N[C@H]1[C@H](O[C@H]2[C@H](O)[C@@H](NC(C)=O)[C@@H](OP(=O)(O)OP(=O)(O)OCCC(C)CCCC(C)CCCC(C)CCCC(C)C)O[C@@H]2CO)O[C@H](CO)[C@@H](O[C@@H]2O[C@H](CO[C@H]3O[C@H](CO)[C@@H](O)[C@H](O)[C@@H]3O)[C@@H](O)[C@H](O)[C@@H]2O)[C@@H]1O
Experiment: UPLC-MS mannosyltransferase assay, nonlinear regression
Type: biochemical, Homo sapiens
Conditions: 2 mM GDP-Man, 10 mM MgCl2, pH 6.0, 0.05% NP-40, 37 °C, 10 min, substrate range 8-200 μM, substrate not further purified

B1: hAlg2 (Trx-hAlg2) (Homo sapiens) (protein)
chain: MAEEQGRERDSVPKPSVLFLHPDLGVGGAERLVLDAALALQARGCSVKIWTAHYDPGHCFAESRELPVRCAGDWLPRGLGWGGRGAAVCAYVRMVFLALYVLFLADEEFDVVVCDQVSACIPVFRLARRRKKILFYCHFPDLLLTKRDSFLKRLYRAPIDWIEEYTTGMADCILVNSQFTAAVFKETFKSLSHIDPDVLYPSLNVTSFDSVVPEKLDDLVPKGKKFLLLSINRYERKKNLTLALEALVQLRGRLTSQDWERVHLIVAGGYDERVLENVEHYQELKKMVQQSDLGQYVTFLRSFSDKQKISLLHSCTCVLYTPSNEHFGIVPLEAMYMQCPVIAVNSGGPLESIDHSVTGFLCEPDPVHFSEAIEKFIREPSLKATMGLAGRARVKEKFSPEAFTEQLYRYVTKLLV
notes: N-terminal His6-Trx tag kept (pET32), expressed in E. coli Rosetta (DE3), HisTrap purified; about 57 kDa on SDS-PAGE
Protein B1 has a Km of 136.7 ± 30.4 µM and a kcat of 1.05 ± 0.13 s⁻¹.
